{"source": "paper PMC10164576", "about": "“Interaction with the carboxy-terminal tip of SSB is critical for RecG function in E. coli” (Nucleic Acids Research, 2023)", "molecules": {"B1": {"name": "SSB-Ct peptide, unlabeled (peptide)", "peptide": "WMDFDDDIPF", "notes": "N-terminal tryptophan residue added for quantification; C-terminal tip of SSB, E. coli; source: synthetic peptide (Genscript)"}, "B2": {"name": "RecG R474E: RecG Arg474Glu charge-reversal variant, HD2 domain (protein)", "chain": "MKGRLLDAVPLSSLTGVGAALSNKLAKINLHTVQDLLLHLPLRYEDRTHLYPIGELLPGVYATVEGEVLNCNISFGGRRMMTCQISDGSGILTMRFFNFSAAMKNSLAAGRRVLAYGEAKRGKYGAEMIHPEYRVQGDLSTPELQETLTPVYPTTEGVKQATLRKLTDQALDLLDTCAIEELLPPELSQGMMTLPEALRTLHRPPPTLQLSDLETGQHPAQRRLILEELLAHNLSMLALRAGAQRFHAQPLSANDTLKNKLLAALPFKPTGAQARVVAEIERDMALDVPMMRLVQGDVGSGKTLVAALAALRAIAHGKQVALMAPTELLAEQHANNFRNWFAPLGIEVGWLAGKQKGKARLAQQEAIASGQVQMIVGTHAIFQEQVQFNGLALVIIDEQHRFGVHQRLALWEKGQQQGFHPHQLIMTATPIPRTLAMTAYADLDTSVIDELPPGRTPVTTVAIPDTRRTDIIDEVHHACITEGRQAYWVCTLIEESELLEAQAAEATWEELKLALPELNVGLVHGRMKPAEKQAVMASFKQGELHLLVATTVIEVGVDVPNASLMIIENPERLGLAQLHQLRGRVGRGAVASHCVLLYKTPLSKTAQIRLQVLRDSNDGFVIAQKDLEIRGPGELLGTRQTGNAEFKVADLLRDQAMIPEVQRLARHIHERYPQQAKALIERWMPETERYSNA", "modifications": "left off: Gal4 DNA-binding domain, N-terminal, kept"}, "B3": {"name": "RecG R95A: RecG wedge domain variant (protein)", "chain": "B2 chain with R95A, E474R", "modifications": "left off: Gal4 DNA-binding domain, N-terminal, kept", "notes": "RecG wedge domain variant"}}, "key": {"[1]": {"system": "E. coli ssb mutant strains (ssbΔ151–166, ssbΔ139–164, ssbΔ130–166)", "test": "DNA damage sensitivity spot plate assay of ssb IDL deletion strains", "format": "cell-based", "conditions": "ssbΔ151–166, ssbΔ139–164 and ssbΔ130–166 versus MG1655; LB plates, 37°C overnight", "method": "MG1655, recG, and ssb IDL mutant strains were tested for sensitivity to UV light, ciprofloxacin, or mitomycin C. A ΔrecA strain (EAW20) was used as a sensitive control in the ssb IDL experiments. Overnight cultures set in biological triplicate were used to inoculate fresh LB. Cells were grown at 37°C with shaking to an OD600 nm of 0.2 and serially diluted 10-fold in 1 × PBS. Ten μl of each dilution was spotted onto square LB agar plates (for UV) or LB plates containing DNA damaging agents (ciprofloxacin or mitomycin C) poured fresh and kept in the dark. UV sensitivity plates were exposed to shortwave light (254 nm) using a Spectrolinker XL-1000 UV crosslinker (Spectronics Corp) and incubated at 37°C overnight in the dark. Plates were imaged on an iBright Imaging System. […] Briefly, dilutions of each strain were plated onto an LB plate exposed to 0, 50 or 100 J/m^2. Plates were incubated under foil at 37°C overnight, and colonies were counted to obtain colony forming units (CFU)/ml and percent relative survival values. […]\n(A) Spot plate assay showing growth of 10-fold serially diluted MG1655 (wildtype ssb), ΔrecA, ssbΔ151–166, ssbΔ139–164, ssbΔ130–166, and ssbΔ120–166 strains exposed to varying UV (top), ciprofloxacin (center), or mitomycin C (bottom) doses. (B) Quantification of strain UV percent survival relative to CFU/ml of the strain at no UV exposure."}, "[2]": {"system": "SSB-interacting proteins (SIPs)", "conditions": "cited from earlier work", "source_text": "Most SSB-interacting proteins (SIPs) studied to date appear to share a conserved mode of SSB recognition in which they dock onto the SSB-Ct. Several SIPs have been co-crystalized with SSB-Ct peptides and their SSB-binding pockets have been validated in biochemical and/or genetic studies ([10],[12],[19],[20],[35]). SSB-Ct binding pockets have also been successfully predicted through computational methods ([36–39]). […] However, structural data ([31],[36],[108]) and predictions ([80]) reveal that the IDL is unstructured, and the length of IDLs across bacterial species varies greatly ([41]). […] Similarly, SSB fluorescent fusion proteins where GFP ..."}, "[3]": {"molecular_target": "T1, RecG (WT) (Escherichia coli, UniProt P24230)", "T1 construct": "RecG was expressed in STL2669/pT7pol26 (a gift from Dr Susan Lovett, Brandeis University) with overexpression plasmid pEAW111; made in house; host or cells: E. coli STL2669/pT7pol26", "test": "Fluorescence anisotropy binding of 6-FAM-labelled SSB peptides to wildtype RecG", "parameters": "species or system E. coli", "experimental": "SSB peptides (sequences listed in Figure 2) were designed with an N-terminal tryptophan residue for quantification and N-terminal 6-FAM label (Genscript). RecG was incubated with 0.2 M potassium glutamate, 1 mM DTT, 0.1 μg/ml BSA, 1 × RecA buffer (25 mM Tris-acetate, pH 7.6, 5% w/v glycerol, 3 mM potassium glutamate, 10 mM magnesium acetate, 1 mM DTT), and 10 nM labeled peptide at room temperature for 30 min. Fluorescence polarization (FP) values were measured at 25°C using a Beacon 2000 Fluorescence Polarization System. Polarization values were normalized to the FP value measured at 0 nM RecG. Normalized FP was converted to normalized anisotropy. Experiments were performed in triplicate, and the data were fit to a one site binding model (, where X is ligand concentration, Y is normalized anisotropy, Bmax is the maximum anisotropy, and KD is the dissociation constant) using GraphPad Prism Software.\nFigure 2. RecG binds directly and specifically to the SSB-Ct. (A) Fluorescence anisotropy binding isotherms for RecG binding to SSB-Ct (black), SSB113 (violet), SSBΔF (blue), or SSB IDL (green) peptides. Peptide sequences are listed in parentheses with * representing an N-terminal 6-FAM label. Anisotropy values are normalized to the reading at 0 μM RecG. […] (B–E) ITC analysis of RecG/SSB binding. Thermograms (top) and binding isotherms (bottom) of titrations of (B) full-length SSB, (C) SSB-Ct peptide, (D) SSBΔF or (E) SSBΔF peptide into RecG solutions.\nTwo models explaining how RecG interacts with SSB have been proposed - RecG could interact with the SSB-Ct ([29]) or RecG could interact with the IDL ([48],[49]). To begin testing each model, we used an equilibrium fluorescence anisotropy assay to measure RecG binding to fluorescently labeled SSB-Ct or IDL peptides (Figure 2). Titration of RecG with the SSB-Ct peptide led to an increase in fluorescence anisotropy, which occurs when protein binding slows the tumbling rate of a labeled peptide ([90]). […] KD values in the low micromolar range are typical for SSB/SIP complexes ([10],[12–14],[19],[23]). […]"}, "[4]": {"molecular_target": "T2, RecG DNA helicase, wildtype (E. coli, UniProt P24230 1-693)", "T2 construct": "RecG DNA helicase, E. coli, expressed from overexpression plasmid pEAW111; No tag is mentioned; also called WT RecG; source: E. coli STL2669/pT7pol26 with pEAW111, purified (ammonium sulfate, DEAE, Source 15Q, Source 15S)", "T2 sequence (looked up)": "B2 chain with E474R", "test": "ITC; SSB proteins or unlabeled peptides injected into RecG in the cell; 20 mM Tris-HCl pH 8.0, 150 mM NaCl, 10% glycerol, 1 mM EDTA, 1 mM β-mercaptoethanol; 25°C; one-site model; concentrations as monomers", "conditions": "both partners purified"}, "[5]": {"molecular_target": "ΦX174 RF I DNA", "test": "DNA-dependent ATP hydrolysis assay (coupled spectrophotometric) of RecG proteins", "format": "biochemical", "conditions": "150 nM RecG, 3 mM ATP, 37°C, pH 7.6, triplicate", "experimental": "ATPase rates for wildtype and variant RecG proteins were determined using a coupled spectrophotometric assay ([86]). ATP hydrolysis reactions were conducted with 150 nM RecG in 1 × RecA buffer, supplemented with 1 mM DTT, 2.2 mM phosphor(enol)pyruvate, 10 units/ml pyruvate kinase, 10 units/ml lactate dehydrogenase, 2 mM NADH, and 3 mM ATP with varying concentrations of ΦX174 RF I (New England Biolabs) DNA at 37°C. DNA concentrations are represented in μM nucleotides (nt). A380 nm measured the conversion of NADH into NAD^+. Measurements were taken every 20–40 s on a Cary UV-Vis spectrophotometer. ATP hydrolysis rates were calculated by dividing the slope of A380 nm measurements over time over the linear region by ε380 nm = 1.21 mM^−1 cm^−1 for NADH and the cell path length (1 cm).\nTo more rigorously and quantitatively test the RecG HD2/SSB-Ct binding model, a RecG variant in which one of the putative SSB-binding residues is altered (RecG R474E) was purified and tested for binding to the SSB-Ct peptide and to full-length SSB in vitro. This variant was chosen because of the predicted interaction of the R474 side chain with the alpha-carboxyl group of SSB-Ct C-terminal Phe (Figure 3A). Analogous interactions have proven to be essential points of contact in other SIPs ([10],[19]). […] ATPase activity of RecG R474E was indistinguishable from that of wildtype RecG, with values for both maximal ATPase rates and the DNA concentrations required for 50% stimulation (KDNA) within error between the two proteins (Figure 4B and Table 2). Thus, we concluded that the RecG R474E variant was properly folded. To further examine the effect of the R474E sequence change, we also used ITC to measure RecG R474E binding to either the SSB-Ct or to full-length SSB. Binding was not detected in either titration (Figure 4C).\nFigure 4.\nWe first measured binding to the SSB-Ct. […] RecG R95A binding to the SSB-Ct was expected since our experiments had shown that the peptide bound at a site in the RecG HD2 domain. […] This difference could be due to compromised DNA binding in the R95A variant. Arg95 is located on the DNA binding surface of the RecG wedge domain ([74]), and changing adjacent residues Phe96 or Phe97 to Ala results in drastic reductions in DNA binding and unwinding activity ([91])."}, "[6]": {"system": "SSB", "conditions": "S. cerevisiae pJ69-4a; Gal4 BD-RecG (variant) with Gal4 AD-SSB; SD His- and Ade-deficient plates, 30°C, 4–5 days", "method": "SSB, RecG or RecG variants were N-terminally fused to the DNA binding domain (pGBD) or activation domain (pGAD) of the Gal4 transcription factor. Resulting plasmids (Supplementary Table S3) were transformed ([84]) in pairs into Saccharomyces cerevisiae strain pJ69-4a ([85]) and selected for on synthetic dextrose (SD) Leu- and Trp-deficient plates. Transformants were inoculated into SD Leu- and Trp-deficient liquid medium and grown at 30°C overnight rotating. Saturated overnight cultures were diluted to an OD600 nm of 1.0 in 2% glucose and serially diluted 10-fold in 2% glucose. Dilutions were spotted (10 μl) onto SD His- and Ade-deficient plates and grown at 30°C for 4–5 days. Plates were imaged on a Fotodyne gel doc. Site-directed mutagenesis of RecG in pGBD was performed by in vivo assembly mutagenesis ([78]) of pEAW1156.\nA fourth charge-reversal variant of R484 was also tested as a control to determine whether an electrostatic change that is near, but not in, the putative SSB binding site would alter RecG binding to SSB. A yeast two-hybrid assay was used as an initial method to screen several RecG variants for interaction with SSB. In the two-hybrid assay, yeast were transformed with plasmids encoding SSB and RecG fused to the Gal4 activation and binding domains, respectively, and the RecG/SSB interaction was assessed by selecting for growth on selective medium plates. […]"}, "[7]": {"system": "SSB", "conditions": "cited from earlier work", "source_text": "In contra ... || To directly test whether the proposed RecG wedge domain IDL binding site is important for interaction with SSB, we purified a RecG R95A variant and measured its activity in vitro. […] We first measured binding to the SSB-Ct."}}, "note": "Numbering of substitutions follows the chain as printed. Numbers in names are those of the source. Like-named read-outs stand apart in the source and are kept apart here. Where a SMILES comes first, the peptide text is derived from it. Where no end group is shown, it is not given here. The star is where a group is joined. 6FAM = O=C1OC2(c3ccc(O)cc3Oc3cc(O)ccc32)c2cc(C(=O)*)ccc21"}
{"molecule": "O=C(O)c1cn(C2CC2)c2cc(N3CCNCC3)c(F)cc2c1=O", "note": "[ciprofloxacin]", "values": [{"measurement": "DNA damage sensitivity of ssb IDL deletion strains, in words", "setting": "[1]", "value": "no change in DNA damage sensitivity compared to MG1655"}]}
{"molecule": "SSB113 protein: SSB with a Ser for the penultimate Pro of the SSB-Ct (ssb-113 mutation)", "values": [{"measurement": "affinity for SIPs, in words", "setting": "[2]; SSB113", "value": "greatly reduced affinity for SIPs"}]}
{"molecule": "CO[C@@]12[C@H](COC(N)=O)C3=C(C(=O)C(C)=C(N)C3=O)N1C[C@@H]1N[C@@H]12", "note": "[mitomycin C]", "values": [{"measurement": "DNA damage sensitivity of ssb IDL deletion strains, in words", "setting": "[1]", "value": "no change in DNA damage sensitivity compared to MG1655"}]}
{"molecule": "CC[C@H](C)[C@H](NC(=O)[C@H](CC(=O)O)NC(=O)[C@H](CC(=O)O)NC(=O)[C@H](CC(=O)O)NC(=O)[C@H](Cc1ccccc1)NC(=O)[C@H](CC(=O)O)NC(=O)[C@H](CCSC)NC(=O)[C@H](Cc1c[nH]c2ccccc12)NC(=O)c1ccc2c(c1)C1(OC2=O)c2ccc(O)cc2Oc2cc(O)ccc21)C(=O)N[C@@H](CO)C(=O)N[C@@H](Cc1ccccc1)C(=O)O", "note": "[SSB113 peptide] (6FAM-WMDFDDDISF-OH)", "values": [{"measurement": "Kd", "setting": "[3]", "value": "23 ± 3.1", "unit": "µM"}]}
{"molecule": "SSBΔF: SSB protein variant lacking the C-terminal-most Phe residue", "values": [{"measurement": "interaction with SIPs, in words (SSB-Ct deletions)", "setting": "[2]; in vitro", "value": "eliminates interactions between SSB and SIPs in vitro"}]}
{"molecule": "H-WMDFDDDIP [SSBΔF peptide]", "values": [{"measurement": "Kd", "setting": "[3]; read-out: FP K D, WT RecG, fluorescence anisotropy, 10 nM N-terminal 6-FAM peptide, 0.2 M potassium glutamate, 25 mM Tris-acetate pH 7.6, 10 mM magnesium acetate, 30 min at room temperature, read at 25°C, one site fit, triplicate", "value": "> 30", "unit": "µM"}]}
{"molecule": "B1", "values": [{"measurement": "Kd", "setting": "[4]", "value": "3.9 ± 0.8", "unit": "µM"}, {"measurement": "dH", "setting": "[4]", "value": "-4 ± 0.5", "unit": "kcal/mol"}, {"measurement": "stoichiometry N", "setting": "[4]", "value": "0.92 ± 0.08"}]}
{"molecule": "B2", "values": [{"measurement": "K DNA (DNA concentration required for 50% stimulation of ATPase)", "setting": "[5]", "value": "39.9 ± 2.9", "unit": "μM nt"}, {"measurement": "V max of ATP hydrolysis", "setting": "[5]", "value": "363 ± 13", "unit": "µM/min"}, {"measurement": "yeast two-hybrid growth on selective medium", "setting": "[6]", "value": "failed to grow"}]}
{"molecule": "B3", "values": [{"measurement": "K DNA (DNA concentration required for 50% stimulation of ATPase)", "setting": "[5]", "value": "18.5 ± 4.9", "unit": "μM nt"}, {"measurement": "V max of ATP hydrolysis", "setting": "[5]", "value": "127 ± 11", "unit": "µM/min"}, {"measurement": "yeast two-hybrid growth on selective medium", "setting": "[6]", "value": "grew on the selective medium"}, {"measurement": "reduction in co-purification with SSB", "setting": "[7]; previous study", "value": 24, "unit": "fold"}, {"measurement": "binding to SSB in co-purification assay, in words", "setting": "[7]; prior results", "value": "severely reduced binding to SSB"}]}
